Measured values reported in paper PMC11574045, “A cofactor-induced repressive type of transcription factor condensation can be induced by synthetic peptides to suppress tumorigenesis” (The EMBO Journal, 2024).

B1: IRF1 (protein, UniProt P10914 1-325, looked up)
Interferon regulatory factor 1: MPITRMRMRPWLEMQINSNQIPGLIWINKEEMIFQIPWKHAAKHGWDINKDACLFRSWAIHTGRYKAGEKEPDPKTWKANFRCAMNSLPDIEEVKDQSRNKGSSAVRVYRMLPPLTKNQRKERKSKSSRDAKSKAKRKSCGDSSPDTFSDGLSSSTLPDDHSSYTVPGYMQDLEVEQALTPALSPCAVSSTLPDWHIPVEVVPDSTSDLYNFQVSPMPSTSEATTDEDEEGKLPEDIMKLLEQSEWQPTNVDGKGYLLNEPGVQPTSVYGDFSCKEEPEIDSPGGDIGLSLQRVFTDLKNMDATWLDSLLTPVRLPSIQAIPCAP
B2: HSFY1 (protein, UniProt Q96LI6 1-401, looked up)
Heat shock transcription …: MAHVSSETQDVSPKDELTASEASTRSPLCEHTFPGDSDLRSMIEEHAFQVLSQGSLLESPSYTVCVSEPDKDDDFLSLNFPRKLWKIVESDQFKSISWDENGTCIVINEELFKKEILETKAPYRIFQTDAIKSFVRQLNLYGFSKIQQNFQRSAFLATFLSEEKESSVLSKLKFYYNPNFKRGYPQLLVRVKRRIGVKNASPISTLFNEDFNKKHFRAGANMENHNSALAAEASEESLFSASKNLNMPLTRESSVRQIIANSSVPIRSGFPPPSPSTSVGPSEQIATDQHAILNQLTTIHMHSHSTYMQARGHIVNFITTTTSQYHIISPLQNGYFGLTVEPSAVPTRYPLVSVNEAPYRNMLPAGNPWLQMPTIADRSAAPHSRLALQPSPLDKYHPNYN
B3: HSF1 (protein, UniProt Q00613 1-529, looked up)
Heat shock factor protein 1: MDLPVGPGAAGPSNVPAFLTKLWTLVSDPDTDALICWSPSGNSFHVFDQGQFAKEVLPKYFKHNNMASFVRQLNMYGFRKVVHIEQGGLVKPERDDTEFQHPCFLRGQEQLLENIKRKVTSVSTLKSEDIKIRQDSVTKLLTDVQLMKGKQECMDSKLLAMKHENEALWREVASLRQKHAQQQKVVNKLIQFLISLVQSNRILGVKRKIPLMLNDSGSAHSMPKYSRQFSLEHVHGSGPYSAPSPAYSSSSLYAPDAVASSGPIISDITELAPASPMASPGGSIDERPLSSSPLVRVKEEPPSPPQSPRVEEASPGRPSSVDTLLSPTALIDSILRESEPAPASVTALTDARGHTDTEGRPPSPPPTSTPEKCLSVACLDKNELSDHLDAMDSNLDNLQTMLSSHGFSVDTSALLDLFSPSVTVPDMSLPDLDSSLASIQELLSPQEPPRPPEAENSSPDSGKQLVHYTAQPLFLLDPGSVDTGSNDLPVLFELGEGSYFSEGDGFAEDPTISLLTGSEPPKAKDPTVS
B4: IKZF2 (protein, UniProt Q9UKS7 1-526, looked up)
Zinc finger protein Helios: METEAIDGYITCDNELSPEREHSNMAIDLTSSTPNGQHASPSHMTSTNSVKLEMQSDEECDRKPLSREDEIRGHDEGSSLEEPLIESSEVADNRKVQELQGEGGIRLPNGKLKCDVCGMVCIGPNVLMVHKRSHTGERPFHCNQCGASFTQKGNLLRHIKLHSGEKPFKCPFCSYACRRRDALTGHLRTHSVGKPHKCNYCGRSYKQRSSLEEHKERCHNYLQNVSMEAAGQVMSHHVPPMEDCKEQEPIMDNNISLVPFERPAVIEKLTGNMGKRKSSTPQKFVGEKLMRFSYPDIHFDMNLTYEKEAELMQSHMMDQAINNAITYLGAEALHPLMQHPPSTIAEVAPVISSAYSQVYHPNRIERPISRETADSHENNMDGPISLIRPKSRPQEREASPSNSCLDSTDSESSHDDHQSYQGHPALNPKRKQSPAYMKEDVKALDTTKAPKGSLKDIYKVFNGEGEQIRAFKCEHCRVLFLDHVMYTIHMGCHGYRDPLECNICGYRSQDRYEFSSHIVRGEHTFH
B5: HSFX1 (protein, UniProt Q9UBD0 1-423, looked up)
Heat shock transcription …: MEDKRSLSMARCEERNSRGQDHGLERVPFPPQLQSETYLHPADPSPAWDDPGSTGSPNLRLLTEEIAFQPLAEEASFRRPHPDGDVPPQGEDNLLSLPFPQKLWRLVSSNQFSSIWWDDSGACRVINQKLFEKEILKRDVAHKVFATTSIKSFFRQLNLYGFRKRRQCTFRTFTRIFSAKRLVSILNKLEFYCHPYFQRDSPHLLVRMKRRVGVKSAPRHQEEDKPEAAGSCLAPADTEQQDHTSPNENDQVTPQHREPAGPNTQIRSGSAPPATPVMVPDSAVASDNSPVTQPAGEWSEGSQAHVTPVAAVPGPAALPFLYVPGSPTQMNSYGPVVALPTASRSTLAMDTTGLPAPGMLPFCHLWVPVTLVAAGAAQPAASMVMFPHLPALHHHCPHSHRTSQYMPASDGPQAYPDYADQST
B6: IDB3 (protein, UniProt Q02535 1-119, looked up)
DNA-binding protein inhibitor …: MKALSPVRGCYEAVCCLSERSLAIARGRGKGPAAEEPLSLLDDMNHCYSRLRELVPGVPRGTQLSQVEILQRVIDYILDLQVVLAEPAPGPPDGPHLPIQTAELTPELVISNDKRSFCH
B7: ID4 (protein, UniProt P47928 1-161, looked up)
DNA-binding protein inhibitor …: MKAVSPVRPSGRKAPSGCGGGELALRCLAEHGHSLGGSAAAAAAAAAARCKAAEAAADEPALCLQCDMNDCYSRLRRLVPTIPPNKKVSKVEILQHVIDYILDLQLALETHPALLRQPPPPAPPHHPAGTCPAAPPRTPLTALNTDPAGAVNKQGDSILCR
B8: IRF2 (protein, UniProt P14316 1-349, looked up)
Interferon regulatory factor 2: MPVERMRMRPWLEEQINSNTIPGLKWLNKEKKIFQIPWMHAARHGWDVEKDAPLFRNWAIHTGKHQPGVDKPDPKTWKANFRCAMNSLPDIEEVKDKSIKKGNNAFRVYRMLPLSERPSKKGKKPKTEKEDKVKHIKQEPVESSLGLSNGVSDLSPEYAVLTSTIKNEVDSTVNIIVVGQSHLDSNIENQEIVTNPPDICQVVEVTTESDEQPVSMSELYPLQISPVSSYAESETTDSVPSDEESAEGRPHWRKRNIEGKQYLSNMGTRGSYLLPGMASFVTSNKPDLQVTIKEESNPVPYNSSWPPFQDLPLSSSMTPASSSSRPDRETRASVIKKTSDITQARVKSC
B9: HSBP1 (protein, UniProt O75506 1-76, looked up)
Heat shock factor-binding …: MAETDPKTVQDLTSVVQTLLQQMQDKFQTMSDQIIGRIDDMSSRIDDLEKNIADLMTQAGVEELESENKIPATQKS
B10: IFI16 (protein, UniProt Q16666 1-785, looked up)
Gamma-interferon-inducible …: MGKKYKNIVLLKGLEVINDYHFRMVKSLLSNDLKLNLKMREEYDKIQIADLMEEKFRGDAGLGKLIKIFEDIPTLEDLAETLKKEKLKVKGPALSRKRKKEVDATSPAPSTSSTVKTEGAEATPGAQKRKKSTKEKAGPKGSKVSEEQTQPPSPAGAGMSTAMGRSPSPKTSLSAPPNSSSTENPKTVAKCQVTPRRNVLQKRPVIVKVLSTTKPFEYETPEMEKKIMFHATVATQTQFFHVKVLNTSLKEKFNGKKIIIISDYLEYDSLLEVNEESTVSEAGPNQTFEVPNKIINRAKETLKIDILHKQASGNIVYGVFMLHKKTVNQKTTIYEIQDDRGKMDVVGTGQCHNIPCEEGDKLQLFCFRLRKKNQMSKLISEMHSFIQIKKKTNPRNNDPKSMKLPQEQRQLPYPSEASTTFPESHLRTPQMPPTTPSSSFFTKKSEDTISKMNDFMRMQILKEGSHFPGPFMTSIGPAESHPHTPQMPPSTPSSSFLTTKSEDTISKMNDFMRMQILKEGSHFPGPFMTSIGPAESHPHTPQMPPSTPSSSFLTTLKPRLKTEPEEVSIEDSAQSDLKEVMVLNATESFVYEPKEQKKMFHATVATENEVFRVKVFNIDLKEKFTPKKIIAIANYVCRNGFLEVYPFTLVADVNADRNMEIPKGLIRSASVTPKINQLCSQTKGSFVNGVFEVHKKNVRGEFTYYEIQDNTGKMEVVVHGRLTTINCEEGDKLKLTCFELAPKSGNTGELRSVIHSHIKVIKTRKNKKDILNPDSSMETSPDFFF
B11: ARL2BP (protein, UniProt Q9Y2Y0 1-163, looked up)
ADP-ribosylation factor-like …: MDALEGESFALSFSSASDAEFDAVVGYLEDIIMDDEFQLLQRNFMDKYYLEFEDTEENKLIYTPIFNEYISLVEKYIEEQLLQRIPEFNMAAFTTTLQHHKDEVAGDIFDMLLTFTDFLAFKEMFLDYRAEKEGRGLDLSSGLVVTSLCKSSSLPASQNNLRH
B12: ING1L (protein, UniProt Q9H160 1-280, looked up)
Inhibitor of growth protein 2: MLGQQQQQLYSSAALLTGERSRLLTCYVQDYLECVESLPHDMQRNVSVLRELDNKYQETLKEIDDVYEKYKKEDDLNQKKRLQQLLQRALINSQELGDEKIQIVTQMLELVENRARQMELHSQCFQDPAESERASDKAKMDSSQPERSSRRPRRQRTSESRDLCHMANGIEDCDDQPPKEKKSKSAKKKKRSKAKQEREASPVEFAIDPNEPTYCLCNQVSYGEMIGCDNEQCPIEWFHFSCVSLTYKPKGKWYCPKCRGDNEKTMDKSTEKTKKDRRSR
B13: IRF3 (protein, UniProt Q14653 1-427, looked up)
Interferon regulatory factor 3: MGTPKPRILPWLVSQLDLGQLEGVAWVNKSRTRFRIPWKHGLRQDAQQEDFGIFQAWAEATGAYVPGRDKPDLPTWKRNFRSALNRKEGLRLAEDRSKDPHDPHKIYEFVNSGVGDFSQPDTSPDTNGGGSTSDTQEDILDELLGNMVLAPLPDPGPPSLAVAPEPCPQPLRSPSLDNPTPFPNLGPSENPLKRLLVPGEEWEFEVTAFYRGRQVFQQTISCPEGLRLVGSEVGDRTLPGWPVTLPDPGMSLTDRGVMSYVRHVLSCLGGGLALWRAGQWLWAQRLGHCHTYWAVSEELLPNSGHGPDGEVPKDKEGGVFDLGPFIVDLITFTEGSGRSPRYALWFCVGESWPQDQPWTKRLVMVKVVPTCLRALVEMARVGGASSLENTVDLHISNSHPLSLTSDQYKAYLQDLVEGMDFQGPGES
B14: IKZF1 (protein, UniProt Q13422 1-519, looked up)
DNA-binding protein Ikaros: MDADEGQDMSQVSGKESPPVSDTPDEGDEPMPIPEDLSTTSGGQQSSKSDRVVASNVKVETQSDEENGRACEMNGEECAEDLRMLDASGEKMNGSHRDQGSSALSGVGGIRLPNGKLKCDICGIICIGPNVLMVHKRSHTGERPFQCNQCGASFTQKGNLLRHIKLHSGEKPFKCHLCNYACRRRDALTGHLRTHSVGKPHKCGYCGRSYKQRSSLEEHKERCHNYLESMGLPGTLYPVIKEETNHSEMAEDLCKIGSERSLVLDRLASNVAKRKSSMPQKFLGDKGLSDTPYDSSASYEKENEMMKSHVMDQAINNAINYLGAESLRPLVQTPPGGSEVVPVISPMYQLHKPLAEGTPRSNHSAQDSAVENLLLLSKAKLVPSEREASPSNSCQDSTDTESNNEEQRSGLIYLTNHIAPHARNGLSLKEEHRAYDLLRAASENSQDALRVVSTSGEQMKVYKCEHCRVLFLDHVMYTIHMGCHGFRDPFECNMCGYHSQDRYEFSSHITRGEHRFHMS

Test system: HEK293FT cells transfected with TF library
Assay: Screening of TF condensates based on fluorescent puncta
Assay type: cell-based
Conditions: Figure 1B numerical data; TF library screen, one value per transcriptional factor
In short: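 Each TF construct was introduced into HEK293FT cells using PEI at 4.8 μg/ml; glucose deprivation versus normal medium lasted 12 h. Automated confocal-style imaging of tagged TF staining, 50 fields per well, gave the puncta data.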

Going from B1 to B2, the “Z score of condensed fraction” value rises from -0.5727 to 0.153.

First: B3
Second: B4
The “Z score of condensed fraction” value of the first is lower: -1.041 for the first, 1.456 for the second.

Compared with B5, B6 is higher in “Z score of condensed fraction” value: -0.6149 for the first, -0.588 for the second.

First: B7
Second: B8
The “Z score of condensed fraction” value of the first is lower: -0.9102 for the first, -0.3538 for the second.

First: B9
Second: B10
The “Z score of condensed fraction” value of the first is higher: -0.06777 for the first, -0.2342 for the second.

First: B11
Second: B12
The “Z score of condensed fraction” value of the first is higher: 1.651 for the first, -0.141 for the second.

First: B13
Second: B14
The “Z score of condensed fraction” value of the first is higher: 1.843 for the first, 0.01528 for the second.
